These results are taken from paper PMC12519566, “A TOM1 variant impairs interaction with TOLLIP, autophagosome-lysosome fusion and regulation of innate immunity” (Disease Models & Mechanisms, 2025).

For assay [1], the target named is T1, TOLLIP (Homo sapiens, UniProt Q9H0E2).
T1 construct: human TOLLIP cDNA in pGEX6P1, expressed in E. coli Rosetta; GST-TOLLIP in the lipid overlay, TOLLIP in liposome co-sedimentation
The experiment in a line: lipid-protein overlay; liposome co-sedimentation. Format: binding. To be noted: without TOM1; overlay: PtdIns3P on PVDF, 60 nM GST-TOLLIP, pH 8.0, 4 C; sedimentation: 2.5 uM TOLLIP, DOPC/DOPE liposomes with 3% PtdIns3P.

Assay [2] concerns the target GST. As to the kind of experiment: cross-linking; glutaraldehyde dilution series (0.01-1%), 5 min at 37°C; SDS-PAGE.
The target in assay [3] is GST. As to the kind of experiment: cross-linking; BS3 (0.25-5 mM), 30 min at room temperature; TOLLIP and TOM1 preincubated for 30 min before BS3; SDS-PAGE.
Assay [4] deals with T2, TOM1 G307D, MYC-BirA fusion (BioID bait) (UniProt O60784 1-492, G307D).
T2 construct: also called TOM1 G307D variant; source: inducible Flp-In T-REx 293 cell line, induced with doxycycline and biotin, in cells
As to the kind of experiment: proximity labelling; BioID with mass spectrometry; Flp-In T-REx 293 cells induced with 2 µg/ml doxycycline and 50 µM biotin for 24 h; Strep-Tactin sepharose; three biological replicates. To be noted: partners not purified.

For `CCCCCCCCCCCCCCCC(=O)OC[C@H](COP(=O)(O)O[C@@H]1[C@H](O)[C@H](OP(=O)(O)O)[C@@H](O)[C@H](O)[C@H]1O)OC(=O)CCCCCCCCCCCCCCC` [dipalmitoyl PtdIns3P], the “lipid-protein overlay; liposome co-sedimentation” value in assay [1] was “As expected, TOM1 WT significantly reduced TOLLIP binding to PtdIns3P (Fig. 2B)”.

Regarding GST (natural protein), the stoichiometry N in assay [2] and in assay [3] was 2 in each case.

B1: myosin VI (natural protein, human (endogenous in Flp-In T-REx 293), UniProt Q9UM54 1-1294, looked up)
chain: MEDGKPVWAPHPTDGFQMGNIVDIGPDSLTIEPLNQKGKTFLALINQVFPAEEDSKKDVEDNCSLMYLNEATLLHNIKVRYSKDRIYTYVANILIAVNPYFDIPKIYSSEAIKSYQGKSLGTRPPHVFAIADKAFRDMKVLKMSQSIIVSGESGAGKTENTKFVLRYLTESYGTGQDIDDRIVEANPLLEAFGNAKTVRNNNSSRFGKFVEIHFNEKSSVVGGFVSHYLLEKSRICVQGKEERNYHIFYRLCAGASEDIREKLHLSSPDNFRYLNRGCTRYFANKETDKQILQNRKSPEYLKAGSMKDPLLDDHGDFIRMCTAMKKIGLDDEEKLDLFRVVAGVLHLGNIDFEEAGSTSGGCNLKNKSAQSLEYCAELLGLDQDDLRVSLTTRVMLTTAGGTKGTVIKVPLKVEQANNARDALAKTVYSHLFDHVVNRVNQCFPFETSSYFIGVLDIAGFEYFEHNSFEQFCINYCNEKLQQFFNERILKEEQELYQKEGLGVNEVHYVDNQDCIDLIEAKLVGILDILDEENRLPQPSDQHFTSAVHQKHKDHFRLTIPRKSKLAVHRNIRDDEGFIIRHFAGAVCYETTQFVEKNNDALHMSLESLICESRDKFIRELFESSTNNNKDTKQKAGKLSFISVGNKFKTQLNLLLDKLRSTGASFIRCIKPNLKMTSHHFEGAQILSQLQCSGMVSVLDLMQGGYPSRASFHELYNMYKKYMPDKLARLDPRLFCKALFKALGLNENDYKFGLTKVFFRPGKFAEFDQIMKSDPDHLAELVKRVNHWLTCSRWKKVQWCSLSVIKLKNKIKYRAEACIKMQKTIRMWLCKRRHKPRIDGLVKVGTLKKRLDKFNEVVSVLKDGKPEMNKQIKNLEISIDTLMAKIKSTMMTQEQIQKEYDALVKSSEELLSALQKKKQQEEEAERLRRIQEEMEKERKRREEDEKRRRKEEEERRMKLEMEAKRKQEEEERKKREDDEKRIQAEVEAQLARQKEEESQQQAVLEQERRDRELALRIAQSEAELISDEAQADLALRRSLDSYPVSKNDGTRPKMTPEQMAKEMSEFLSRGPAVLATKAAAGTKKYDLSKWKYAELRDTINTSCDIELLAACREEFHRRLKVYHAWKSKNKKRNTETEQRAPKSVTDYDFAPFLNNSPQQNPAAQIPARQREIEMNRQQRFFRIPFIRPADQYKDPQSKKKGWWYAHFDGPWIARQMELHPDKPPILLVAGKDDMEMCELNLEETGLTRKRGAEILPRQFEEIWERCGGIQYLQNAIESRQARPTYATAMLQSLLK
notes: myosin VI, endogenous protein found by proximity labeling mass spectrometry; source: endogenous, Flp-In T-REx 293 cells
Regarding B1, the “interaction relative to that of TOM1 WT with myosin VI” value in assay [4] stood at 69%.

The stoichiometry N is a count of units in the complex or per binding partner.
